Where two headings read alike, the source gives them in different places.
Columns and labels:
[1] = biological target: T1, SARS-CoV-2 spike receptor-binding domain (RBD), recombinant (SARS-CoV-2, UniProt P0DTC2 319-541); assay: ELISA on RBD
[2] = biological target: T1, SARS-CoV-2 spike receptor-binding …; assay: SPR, Carterra LSA
[3] = biological target: SARS-CoV-2 spike receptor-binding domain (RBD), recombinant (SARS-CoV-2, UniProt P0DTC2 319-541); assay: SPR, Carterra LSA; remark: listed apart in the source
[4] = biological target: T2, SARS-CoV-2 spike receptor-binding domain, wild type (RBD-6×His) (SARS-CoV-2, UniProt P0DTC2 319-541)
[5] = biological target: T2, SARS-CoV-2 spike receptor-binding …; remark: listed apart in the source
[6] = biological target: T2, SARS-CoV-2 spike receptor-binding …; assay: ELISA, coated RBD-6His
[7] = biological target: T3, full-length spike protein (coated in ELISA) (SARS-CoV-2, UniProt P0DTC2 16-1213)
[8] = biological target: RBD-6×His protein, RBD WT of the SARS-CoV-2 spike protein (SARS-CoV-2, UniProt P0DTC2 319-541); assay: ELISA on recombinant RBD
[9] = biological target: T2, SARS-CoV-2 spike receptor-binding …; remark: listed apart in the source
[10] = biological target: RBD fragment of the SARS-CoV-2 spike protein (RBD WT), recombinant (SARS-CoV-2, UniProt P0DTC2 319-541); assay: SPR Carterra LSA
[11] = biological target: T3, full-length spike protein (coated in …); remark: listed apart in the source
[12] = biological target: T2, SARS-CoV-2 spike receptor-binding …; remark: listed apart in the source
[13] = biological target: T2, SARS-CoV-2 spike receptor-binding …; remark: listed apart in the source
[14] = biological target: T2, SARS-CoV-2 spike receptor-binding …; remark: listed apart in the source

B1: 2-5D9 (antibody, V domains shown)
VH: QVQLQESGPGLVKPSETLSLTCTVSGGSISSYYWSWIRQPPGKGLEWIGYIYYTGSTNYNPSLKSRVTISVDTSKNQFSLKLRSVTAADTAVYYCAGTYDSNLLDPWGQGTLVTVSS
VL: DIQMTQSPSSLSASVGDRVTITCRASQGISNSLAWYQQKPGKAPKLLLYDVFRFESGVPSRFSGSGSGTDYTLTISSLQPDDFATYYCQQYYSTPYTFGQGTKVEIK
A(405 nm) [1]: 3.49
Kd [2]: 0.544 nM

B2: 3-12B12 (antibody, V domains shown)
VH: EVQLQQSGAELVRPGALVKLSCKASGFNIKDYYMHWVKQRPEQGLEWIGWIDPENGNSIYDPKFQGKASITADTSFNTVNLHLSSLTSEDTAVYYCAPYYYDSTYVGTMDYWGQGTSVTVSS
VL: QIVLTQSPAIMSASPGEKVTMTCSASSSVGYMYWYQQKPGSSPRLLIYDTSNLASGVPVRFGGSGSGTSYSLTISRMEAEDAATYYCQQWSSYPPRTFGGGTKLEIK
Kd [3]: 0.0165 nM

B3: 2-4G1 (antibody, V domains shown)
VH: EVQLVQSGAEVKRPGASVKVSCKASGYTFTSYGLSWVRQAPGQGLEWMGWINTYNGHTNYAQKVQGRVTLTTDTSTSTAYMELRSLRSDDTAVYYCARVESVYYGSGTCDPWGQGTLVTVSS
VL: DIQMTQSPSSLSASVGDRVTITCRASQSISSYLNWYQQKPGKAPKLLIYIASSLQSGVPSRFSGSGSGTDFTLTISSLQPEDFATYYCHQSYSSPHTFGQGTKLEIK
A(405 nm) [1]: 2.08
Kd [2]: 14.4 nM

B4: VH1/VL1 (antibody, V domains shown)
VH: EVQLQQSGAELVKPGASVKLSCTASGFNIKETYVHWVKQRPEQGLEWIGRIDPAIGDSEYDPKFQGKATVTADTSSNTAYLQLSRLTSEDTAVYYCARTWGPFFDFWGQGTTLTVSS
VL: DVVMTQTPLSLPVSLGDQASISCRSSQSLVHSHGNTFLHWYLQKPGQSPKVLIYKVSSRFSGVPDRFSGSGAGTDFTLKISRVEAEDLGVYFCSQSTHVPYTFGGGTKLEIK
notes: also called chimeric antibody 9-8F2-B11, combination VH1/VL1
EC50 (read off the curve) [4]: ~0.1 µg/mL

B5: 9-8F2-B11 (mouse) (antibody, V domains shown)
VH: EVQLQQSGAELVKPGASVKLSCTASGFNIKETYVHWVKQRPEQGLEWIGRIDPAIGDSEYDPKFQGKATVTADTSSNTAYLQLSRLTSEDTAVYYCARTWGPFFDFWGQGTTLTVSS
VL: DVVMTQTPLSLPVSLGDQASISCRSSQSLVHSHGNTFLHWYLQKPGQSPKVLIYKVSSRFSGVPDRFSGSGAGTDFTLKISRVEAEDLGVYFCSQSTHVPYTFGGGTKLEIK
Kd [5]: 0.913 nM
IC50 [6]: 0.0137 µg/mL
IC50 [7]: 0.0037 µg/mL

B6: 2-5F8 (antibody, V domains shown)
VH: QVQLVQSGAEVKKPGASVKVSCKASGYTFTNYYMHWVRQAPGQGLEWMGVINPSGASTSYAQKFQGRVTMTRDTSTSTVYMELSSLRSEDTAVYYCASWGGNIPLYYYYGMDVWGQGTTVTVSS
VL: QSALTQPPSASGSPGQSVTISCTGTSSDVGGYNYVSWYQQHPGKAPKLMIYEVSKRPSGVPDRFSGSKAGNTASLTVSGLQAEDEADYYCTSYAGSNIWVFGGGTKLTVL
A(405 nm) [1]: 3.48
Kd [2]: 1.5 nM

B7: humanised antibody 9-7A4-C2 (antibody, V domains shown)
VH: EVQLQQSGAEVKKPGASVKVSCKTSGYTFTEYTMYWVRQAPGQRLEWMGGINPNNGDSSYIQKFQGRVTITRDTSASTAYMELSSLRSEDTAVYYCARDGYPNSYAMDYWGQGTLVTVSS
VL: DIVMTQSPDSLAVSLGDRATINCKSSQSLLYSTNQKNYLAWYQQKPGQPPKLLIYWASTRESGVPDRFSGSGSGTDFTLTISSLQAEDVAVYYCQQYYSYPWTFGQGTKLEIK
notes: also called humanised 9-7A4-C2
binding result [8]: binds

B8: 9-2H7-D7 chimera (antibody, V domains shown)
VH: EVQLQQSGPELVKPGASVTISCKTSGYTFTEYTMYWVKQSHGKSLEWIGGINPYIGDTSYNQNFKGKATLTVDKSSSTAYMELRSLTSEDSAVYYCARDGYPDYSAMDFWGQGTSVTVSS
VL: DIVMSQSPSSLAVSVGEKVTMNCKSSQNLLYSSNQKNYLAWYQQKPGQSPKLLIYWASTRESGVPDRFTGSGSGTDFTLTISSVKAEDLAVYSCQQYYTYPWTFGGGTKLEIK
EC50 (read off the curve) [9]: ~0.05 µg/mL

B9: 9-7A4 (antibody, V domains shown)
VH: EVQLQQSGPELVKPGASVKISCKTSGYTFTEYTMYWVKQSHGKSLEWIGGINPNNGDSSYIQKFKGKATLTVDESSSTAYMELRSLTSEDSAVYYCARDGYPNSYAMDYWGQGTSVTVSS
VL: DIVMSQSPSSLAVSVGDKVTMSCKSSQSLLYSTNQKNYLAWYQQKPGQSPKLLIYWASTRESGVPDRFTGSGSGTDFTLTIGSVRPEDLAVYYCQQYYSYPWTFGGGTKLEIK
Kd [10]: 0.735 nM

B10: 9-7A4-C2 (mouse) (antibody, V domains shown)
VH: EVQLQQSGPELVKPGASVKISCKTSGYTFTEYTMYWVKQSHGKSLEWIGGINPNNGDSSYIQKFKGKATLTVDESSSTAYMELRSLTSEDSAVYYCARDGYPNSYAMDYWGQGTSVTVSS
VL: DIVMSQSPSSLAVSVGDKVTMSCKSSQSLLYSTNQKNYLAWYQQKPGQSPKLLIYWASTRESGVPDRFTGSGSGTDFTLTIGSVRPEDLAVYYCQQYYSYPWTFGGGTKLEIK
Kd [5]: 0.643 nM
IC50 [6]: 0.0133 µg/mL
IC50 [7]: 0.0027 µg/mL

B11: 9-2H7-D7 (mouse) (antibody, V domains shown)
VH: EVQLQQSGPELVKPGASVTISCKTSGYTFTEYTMYWVKQSHGKSLEWIGGINPYIGDTSYNQNFKGKATLTVDKSSSTAYMELRSLTSEDSAVYYCARDGYPDYSAMDFWGQGTSVTVSS
VL: DIVMSQSPSSLAVSVGEKVTMNCKSSQNLLYSSNQKNYLAWYQQKPGQSPKLLIYWASTRESGVPDRFTGSGSGTDFTLTISSVKAEDLAVYSCQQYYTYPWTFGGGTKLEIK
IC50 [11]: 0.0046 µg/mL
IC50 [6]: 0.0269 µg/mL
Kd [12]: 0.0515 nM

B12: humanised antibody 9-2H7-D7 (antibody, V domains shown)
VH: QVQLQQSGAEVKKPGASVKISCKTSGYTFTEYTMYWVKQSHGKSLEWMGGINPYIGDTSYNQNFKGRVTMTRDKSTSTAYMELSSLTSEDSAVYYCARDGYPDYSAMDFWGQGTSVTVSS
VL: DIVMTQSPSSLAVSVGERVTINCKSSQNLLYSSNNKNYLAWYQQKPGQSPKLLIYWASTRESGVPDRFSGSGSGTDFTLTISSVQAEDVAVYSCQQYYTYPWTFGGGTKLEIK
notes: also called humanised 9-2H7-D7
binding result [8]: binds

B13: 9-2H7 (antibody, V domains shown)
VH: EVQLQQSGPELVKPGASVTISCKTSGYTFTEYTMYWVKQSHGKSLEWIGGINPYIGDTSYNQNFKGKATLTVDKSSSTAYMELRSLTSEDSAVYYCARDGYPDYSAMDFWGQGTSVTVSS
VL: DIVMSQSPSSLAVSVGEKVTMNCKSSQNLLYSSNQKNYLAWYQQKPGQSPKLLIYWASTRESGVPDRFTGSGSGTDFTLTISSVKAEDLAVYSCQQYYTYPWTFGGGTKLEIK
Kd [10]: 0.00977 nM

B14: humanised 9-8F2-B11 (VH3VL3) (antibody, V domains shown)
VH: QVQLVQSGAEVKKPGASVKVSCKASGFNIKETYVHWVRQAPGQGLEWMGRIDPAIGDSEYAQKFQGRVTMTRDTSISTAYMELSRLRSDDTAVYYCARTWGPFFDFWGQGTLVTVSS
VL: DIVMTQTPLSLSVTPGQPASISCKSSQSLLHSHGNTFLHWYLQKPGQSPQVLIYKVSSRFSGVPDRFSGSGSGTDFTLKISRVEAEDVGVYYCSQSTHVPYTFGQGTKLEIK
notes: also called 9-8F2-B11 humanised
EC50 (read off the curve) [13]: ~0.01 µg/mL
Kd [14]: 2.26 nM

B15: 2-5C4 (antibody, V domains shown)
VH: EVQLVESGGGLIQPGGSLRLSCAASGLTVSSNYMNWVRQAPGKGLEWVSVIYAGGSTFYADSVKGRFTISRDNSKNTLYLQMNSLRAEDTAFYYCARESYGMDVWGQGTTVTVSS
VL: EIVLTQSPATLSLSPGERATLSCRASQSISSSYLAWYQQKPGQAPRLLIYGASSRATGIPDRFSGSGSGTDFTLTISRLEPEDFAVYYCQQYGSLYTFGQGTKVEIK
A(405 nm) [1]: 2.26
Kd [2]: 0.026 nM

Source: patent US20240382586A1 (TAKIS S R L, published 2024)
